Data: publication PMC3029384, “Dimeric SecA Couples the Preprotein Translocation in an Asymmetric Manner” (PLoS ONE, 2011)

B2: His6-tagged SecB (natural protein, Escherichia coli)
chain: MSEQNNTEMTFQIQRIYTKDISFEAPNAPHVFQKDWQPEVKLDLDTASSQLADDVYEVVLRVTVTASLGEETAFLCEVQQGGIFSIAGIEGTQMAHCLGAYCPNILFPYARECITSMVSRGTFPQLNLAPVNFDALFMNYLQQQAGEGTEEHQ
notes: SecB chaperone, Escherichia coli; The tag is named explicitly only in Materials and for the SecB/proOmpA assembly; also called SecB tetramer; tetrameric SecB

Legend:
SecA (Escherichia coli) = SecA (Escherichia coli) (UniProt P10408); conditions: cited from earlier work
His6-tagged SecB = target: B2; experiment: SEC; SecA monomer 3 uM and preformed SecB/proOmpA 2 uM incubated 1 h at 4 °C in buffer A (20 mM HEPES-KOH, 30 mM KCl, 1 mM DTT, pH 7.4); Superdex G200 analytical column at 4 °C; fractions checked by SDS-PAGE; conditions: both partners purified
[1] = target: the molecule itself; experiment: SEC; SecA monomer 3 uM and SecB monomer 30 uM incubated 1 h at 4 °C in buffer A (20 mM HEPES-KOH, 30 mM KCl, 1 mM DTT, pH 7.4); Superdex G200 analytical column at 4 °C; peak fraction checked by SDS-PAGE

Molecule: SecA (from UniProt P10408)
- Kd (SecA (Escherichia coli)): 1 µM

B1: proOmpA (natural protein, Escherichia coli, UniProt P0A910 1-346, looked up)
chain: MKKTAIAIAVALAGFATVAQAAPKDNTWYTGAKLGWSQYHDTGFINNNGPTHENQLGAGAFGGYQVNPYVGFEMGYDWLGRMPYKGSVENGAYKAQGVQLTAKLGYPITDDLDIYTRLGGMVWRADTKSNVYGKNHDTGVSPVFAGGVEYAITPEIATRLEYQWTNNIGDAHTIGTRPDNGMLSLGVSYRFGQGEAAPVVAPAPAPAPEVQTKHFTLKSDVLFNFNKATLKPEGQAALDQLYSQLSNLDPKDGSVVVLGYTDRIGSDAYNQGLSERRAQSVVDYLISKGIPADKISARGMGESNPVTGNTCDNVKQRAALIDCLAPDRRVEIEVKGIKDVVTQPQA
notes: Precursor form (unfolded, diluted out of 6 M urea); also called preprotein; source: kept in 6 M urea before dilution
- stoichiometry N (His6-tagged SecB): 1 proOmpA per SecB tetramer

Molecule: B2
- stoichiometry N [1]: 4
